Changes are numbered by the printed parent chain. Numbers in names are those of the source.
T1: ALDH7A1 (aldehyde dehydrogenase 7A1; antiquitin) (Homo sapiens, UniProt P49419, E427G)
T1 sequence (P49419 29-539 E427G): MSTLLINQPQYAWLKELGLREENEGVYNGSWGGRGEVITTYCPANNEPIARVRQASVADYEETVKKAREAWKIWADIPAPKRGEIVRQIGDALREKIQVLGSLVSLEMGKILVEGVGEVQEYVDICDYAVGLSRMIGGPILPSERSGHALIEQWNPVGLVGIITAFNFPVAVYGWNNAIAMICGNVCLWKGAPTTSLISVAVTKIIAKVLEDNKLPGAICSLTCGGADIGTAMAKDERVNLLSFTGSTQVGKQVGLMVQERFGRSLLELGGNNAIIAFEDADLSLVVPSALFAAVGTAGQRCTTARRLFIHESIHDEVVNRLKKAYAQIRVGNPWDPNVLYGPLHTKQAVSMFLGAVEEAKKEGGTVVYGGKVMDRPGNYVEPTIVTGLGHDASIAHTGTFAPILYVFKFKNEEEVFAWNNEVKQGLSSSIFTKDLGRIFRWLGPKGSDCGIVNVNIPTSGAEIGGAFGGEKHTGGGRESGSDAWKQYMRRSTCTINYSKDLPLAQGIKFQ

T2: ALDH7A1 (aldehyde dehydrogenase 7A1; antiquitin) (Homo sapiens, UniProt P49419, E427Q)
T2 sequence (P49419 29-539 E427Q): T1 sequence (P49419 29-539 E427G) with G399Q

B1: wild-type ALDH7A1 (aldehyde dehydrogenase 7A1) (enzyme, human, UniProt P49419 27-539, looked up)
chain: AFMSTLLINQPQYAWLKELGLREENEGVYNGSWGGRGEVITTYCPANNEPIARVRQASVADYEETVKKAREAWKIWADIPAPKRGEIVRQIGDALREKIQVLGSLVSLEMGKILVEGVGEVQEYVDICDYAVGLSRMIGGPILPSERSGHALIEQWNPVGLVGIITAFNFPVAVYGWNNAIAMICGNVCLWKGAPTTSLISVAVTKIIAKVLEDNKLPGAICSLTCGGADIGTAMAKDERVNLLSFTGSTQVGKQVGLMVQERFGRSLLELGGNNAIIAFEDADLSLVVPSALFAAVGTAGQRCTTARRLFIHESIHDEVVNRLKKAYAQIRVGNPWDPNVLYGPLHTKQAVSMFLGAVEEAKKEGGTVVYGGKVMDRPGNYVEPTIVTGLGHDASIAHTETFAPILYVFKFKNEEEVFAWNNEVKQGLSSSIFTKDLGRIFRWLGPKGSDCGIVNVNIPTSGAEIGGAFGGEKHTGGGRESGSDAWKQYMRRSTCTINYSKDLPLAQGIKFQ
B2: ALDH7A1 E427Q (Glu427Gln) (enzyme, human, UniProt P49419 27-539, looked up)
chain: B1 chain with E401Q
B3: ALDH7A1 E427D (Glu427Asp) (enzyme, human, UniProt P49419 27-539, looked up)
chain: B1 chain with E401D
B4: ALDH7A1 E427G (Glu427Gly) (enzyme, human, UniProt P49419 27-539, looked up)
chain: B1 chain with E401G

How the values were obtained:
[1] = target: T1, ALDH7A1 (aldehyde dehydrogenase 7A1; antiquitin); assay: X-ray crystal structure, […] Å, co-crystallisation; type: binding; settings: 5 mM NAD+; pH 6.5; NMN disordered
[2] = target: T2, ALDH7A1 (aldehyde dehydrogenase 7A1; antiquitin); assay: X-ray crystal structure, […] Å, co-crystallisation; type: binding; settings: 15 mM NAD+; pH 6.2; ADP portion ordered, NMN disordered
SAXS = target: the molecule itself; assay: SAXS
crystal structure = target: the molecule itself; assay: crystal structure

| Molecule | stoichiometry N (crystal structure) | further results |
| --- | --- | --- |
| NC(=O)c1ccc[n+]([C@@H]2O[C@H](COP(=O)(O)OP(=O)(O)OC[C@H]3O[C@@H](n4cnc5c(N)ncnc54)[C@H](O)[C@@H]3O)[C@@H](O)[C@H]2O)c1 [NAD^+] | – | X-ray crystal structure, 2.15 Å, co-crystallisation [1]: the NMN of NAD^+ bound to E427G is disordered; X-ray crystal structure, 2.06 Å, co-crystallisation [2]: The crystal structure of E427Q complexed with NAD^+ was determined in space group C2 |
| B1 | – | stoichiometry N (SAXS): 4 |
| B2 | 4 | – |
| B3 | 4 | – |
| B4 | 4 | – |

Reference: publication PMC7182499 (Journal of inherited metabolic disease, 2019)
